Test results published in patent US20160031996A1 (CSL, published 2016).

Tests used:
Experiment in all cases: Western blot, whole cell extracts of 293F cells
[1] = molecular target: T1, human IL-3Rα E51A, full length (human, UniProt P26951 19-378)
T1 construct: expressed in 293F cells; Western blot of whole cell extracts; also called E51, cell surface alanine
T1 sequence: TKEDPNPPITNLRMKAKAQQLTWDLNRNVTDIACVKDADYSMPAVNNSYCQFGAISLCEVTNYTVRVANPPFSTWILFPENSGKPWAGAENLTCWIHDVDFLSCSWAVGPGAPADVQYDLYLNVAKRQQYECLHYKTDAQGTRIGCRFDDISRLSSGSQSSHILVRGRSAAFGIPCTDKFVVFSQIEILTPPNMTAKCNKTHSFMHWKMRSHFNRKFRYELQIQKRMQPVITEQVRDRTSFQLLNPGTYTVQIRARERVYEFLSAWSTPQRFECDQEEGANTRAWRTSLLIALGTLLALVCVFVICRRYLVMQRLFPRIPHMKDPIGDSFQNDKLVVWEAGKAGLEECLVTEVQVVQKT

[2] = molecular target: T2, human IL-3Rα W93A, full length (human, UniProt P26951 19-378)
T2 construct: expressed in 293F cells; Western blot of whole cell extracts; also called W93, cell surface alanine
T2 sequence: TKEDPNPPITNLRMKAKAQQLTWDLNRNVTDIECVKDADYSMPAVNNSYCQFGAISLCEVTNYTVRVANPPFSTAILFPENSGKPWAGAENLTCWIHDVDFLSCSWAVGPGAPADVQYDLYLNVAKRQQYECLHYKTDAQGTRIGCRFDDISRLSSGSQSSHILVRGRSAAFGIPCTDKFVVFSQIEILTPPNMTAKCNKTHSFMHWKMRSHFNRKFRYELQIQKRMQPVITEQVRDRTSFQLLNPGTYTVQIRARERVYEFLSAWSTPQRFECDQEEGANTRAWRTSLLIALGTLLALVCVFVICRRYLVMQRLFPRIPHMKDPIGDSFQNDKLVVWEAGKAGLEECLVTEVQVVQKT

[3] = molecular target: T3, human IL-3Rα Y58A, full length (human, UniProt P26951 19-378)
T3 construct: expressed in 293F cells; Western blot of whole cell extracts; also called Y58, cell surface alanine
T3 sequence: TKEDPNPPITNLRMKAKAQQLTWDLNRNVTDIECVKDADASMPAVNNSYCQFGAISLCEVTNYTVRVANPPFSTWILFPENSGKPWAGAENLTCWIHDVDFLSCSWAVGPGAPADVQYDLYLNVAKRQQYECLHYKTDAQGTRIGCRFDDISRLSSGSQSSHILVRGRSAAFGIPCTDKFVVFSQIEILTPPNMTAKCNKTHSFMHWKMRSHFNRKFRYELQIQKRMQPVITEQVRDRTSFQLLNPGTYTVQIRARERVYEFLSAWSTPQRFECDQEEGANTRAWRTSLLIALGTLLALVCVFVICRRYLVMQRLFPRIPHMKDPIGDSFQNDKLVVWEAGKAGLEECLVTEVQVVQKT

[4] = molecular target: T4, human IL-3Rα P61A, full length (human, UniProt P26951 19-378)
T4 construct: expressed in 293F cells; Western blot of whole cell extracts; also called P61, cell surface alanine
T4 sequence: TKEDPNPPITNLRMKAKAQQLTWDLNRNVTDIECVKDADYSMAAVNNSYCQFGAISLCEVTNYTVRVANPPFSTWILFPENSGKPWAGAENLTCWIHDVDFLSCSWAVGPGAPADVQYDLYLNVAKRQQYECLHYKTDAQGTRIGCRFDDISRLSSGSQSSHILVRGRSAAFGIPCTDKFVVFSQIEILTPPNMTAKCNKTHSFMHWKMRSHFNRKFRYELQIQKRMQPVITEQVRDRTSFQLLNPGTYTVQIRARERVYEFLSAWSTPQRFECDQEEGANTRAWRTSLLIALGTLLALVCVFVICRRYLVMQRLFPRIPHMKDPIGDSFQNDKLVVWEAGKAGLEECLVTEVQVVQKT

[5] = molecular target: T5, human IL-3Rα V53A, full length (human, UniProt P26951 19-378)
T5 construct: expressed in 293F cells; Western blot of whole cell extracts; also called V53, cell surface alanine
T5 sequence: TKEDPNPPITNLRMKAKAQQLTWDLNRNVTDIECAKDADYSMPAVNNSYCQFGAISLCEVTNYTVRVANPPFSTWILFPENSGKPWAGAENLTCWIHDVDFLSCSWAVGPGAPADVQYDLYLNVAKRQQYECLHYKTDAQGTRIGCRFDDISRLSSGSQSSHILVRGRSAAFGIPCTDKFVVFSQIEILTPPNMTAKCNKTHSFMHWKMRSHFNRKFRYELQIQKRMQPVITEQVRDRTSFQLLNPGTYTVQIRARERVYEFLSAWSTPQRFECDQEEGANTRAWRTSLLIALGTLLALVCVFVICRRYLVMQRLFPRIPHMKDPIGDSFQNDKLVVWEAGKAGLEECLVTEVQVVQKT

[6] = molecular target: T6, human IL-3Rα R84A, full length (human, UniProt P26951 19-378)
T6 construct: expressed in 293F cells; Western blot of whole cell extracts; also called R84, cell surface alanine
T6 sequence: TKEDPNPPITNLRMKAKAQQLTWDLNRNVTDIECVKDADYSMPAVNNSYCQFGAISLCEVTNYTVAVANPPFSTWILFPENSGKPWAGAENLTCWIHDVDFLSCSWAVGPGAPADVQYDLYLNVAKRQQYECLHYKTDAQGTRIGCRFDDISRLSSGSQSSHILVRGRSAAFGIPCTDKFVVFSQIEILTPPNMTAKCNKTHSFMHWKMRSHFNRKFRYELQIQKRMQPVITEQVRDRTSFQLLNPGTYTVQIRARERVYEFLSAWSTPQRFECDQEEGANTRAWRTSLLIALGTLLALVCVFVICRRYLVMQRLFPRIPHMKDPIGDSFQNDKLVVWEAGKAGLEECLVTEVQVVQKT

Measured: binding result

B1: monoclonal antibody 7G3 (antibody, V domains shown)
VH: EVQLQQSGPELVKPGASVKMSCKASGYTFTDYYMKWVKQSHGKSLEWIGDIIPSNGATFYNQKFKGKATLTVDRSSSTAYMHLNSLTSEDSAVYYCTRSHLLRASWFAYWGQGTLVTVSA
VL: DFVMTQSPSSLTVTAGEKVTMSCKSSQSLLNSGNQKNYLTWYLQKPGQPPKLLIYWASTRESGVPDRFTGSGSGTDFTLTISSVQAEDLAVYYCQNDYSYPYTFGGGTKLEIKR
notes: mouse monoclonal antibody (hybridoma ATCC HB-12009)
no binding: all assays above
